Assay [1] addresses T1, human Siglec15-mouse Fc protein (human).
T1 construct: In house made
T1 chain: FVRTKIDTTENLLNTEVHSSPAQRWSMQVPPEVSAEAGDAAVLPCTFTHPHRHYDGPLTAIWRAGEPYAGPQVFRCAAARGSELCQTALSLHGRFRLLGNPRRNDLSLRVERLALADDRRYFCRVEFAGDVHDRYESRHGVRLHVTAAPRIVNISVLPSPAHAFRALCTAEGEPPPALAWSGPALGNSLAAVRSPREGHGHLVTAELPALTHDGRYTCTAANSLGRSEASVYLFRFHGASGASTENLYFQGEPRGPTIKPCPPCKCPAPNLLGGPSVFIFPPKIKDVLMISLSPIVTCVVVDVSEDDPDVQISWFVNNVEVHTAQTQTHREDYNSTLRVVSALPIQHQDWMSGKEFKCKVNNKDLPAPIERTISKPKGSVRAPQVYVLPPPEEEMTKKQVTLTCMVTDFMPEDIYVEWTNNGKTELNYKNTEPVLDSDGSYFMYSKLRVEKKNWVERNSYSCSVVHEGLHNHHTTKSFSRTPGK
As to the kind of experiment: cell based blocking FACS: human Siglec15-mouse Fc in solution, blocked ligand human LRRC4C on LRRC4C-3F12-1B9 cells. The procedure:
(§1) The activities of the anti-Siglec15 antibodies to block binding of Siglec15 protein to cell surface LRRC4C were evaluated by Flow Cytometry (FACS), using in house made LRRC4C-3F12-1B9 cells. Briefly, HEK-293 cells (ATCC #CRL-1573) were transfected with pCMV-T-P plasmid constructs with the nucleotide sequence encoding human LRRC4C (amino acid residues Met1-Ile640 of uniprot #Q9HCJ2) inserted between EcoRI and XbaI, following the instruction of lipofectamine 3000 transfection reagent (Thermo Fisher). A stable cell named LRRC4C-3F12-1B9 was chosen for subsequent cell based ligand-blocking assay.
(§2) Briefly, the anti-Siglec15 antibodies of the disclosure or controls were diluted with human Siglec15-mouse Fc protein (prepared in-house with SEQ ID NO: 26, 8 μg/ml […] in FACS buffer), starting at 66.67 nM with a 5-fold serial dilution, and incubated at room temperature for 40 minutes. Then, LRRC4C-3F12-1B9 cells were harvested from cell culture flasks, washed twice and re-suspended in PBS containing 2% v/v Fetal Bovine Serum (FACS buffer). Then, 1×10⁵ cells per well in 96 well-plates were incubated in 100 μL of the antibody/Siglec15-mouse Fc mixtures for 40 minutes at 4° C. […] Cells were washed twice and re-suspended in FACS buffer. Fluorescence was measured using a Becton Dickinson FACS Canto II-HTS equipment. Data was analyzed using Graphpad Prism software and IC₅₀ values were reported.

Assay [2] has as its target T1, human Siglec15-mouse Fc protein. The assay is described as above. The procedure:
as §1, §2

Where two headings read alike, the source gives them in different places.

B1: anti-Siglec15 benchmark (ch5G12) (antibody, human IgG1, kappa, V domains shown)
VH: QVQLQQPGAELVKPGASVKMSCKASGYTFTSYWITWVIQRPGQGLEWIGDIYCGSDTMHYNEKFKNKATLTVDTSSSTAYMQLSSLTSEDSAVYYCARWWDYGSSYDYFDYWGQGTTLTVSS
VL: DIKMTQSPSSMYASLGERVTITCKASQDINSYLSWFQQKPGKSPKTLIYRANRLVDGVPSRFSGSGSGQDYSLTISSLEYEDMGIYYCLQYDEFPYTFGGGTKLEIKR
notes: ch5G12 (US 20190202912A1); also called BM; Siglec15-ch5G9
Turning to B1, the IC50 – broadly, the concentration needed to halve the response being measured – in assay [1] turned out to be 0.639 nM; in assay [2] it was 0.707 nM.
